Measured values as given in patent US20150218534A1, “MODIFIED DNA POLYMERASE” (TOYOBO CO., LTD., priority 2012, published 2015).

Assays:
[1] = tested on: 1.3 kbp, 2.8 kbp, and 3.6 kbp of human β-globin; assay: Amplification of long-chain DNA in PCR using dUTP; format: biochemical; set-up: key to Results of PCR in the presence of dUTP 1.3 kbp / Results of PCR in the presence of dUTP 2.8 kbp / Results of PCR in the presence of dUTP 3.6 kbp: A: Amplified; B: Amplified (faint band); C: Not amplified; conditions: dTTP replaced by dUTP, 35 cycles
Procedure, shortened: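 Enzymes (1 U, premixed with KOD antibody) amplified 1.3, 2.8 and 3.6 kbp β-globin from 10 ng human genomic DNA with 2 mM dNTPs having dUTP in place of dTTP, 1.5 mM MgSO4, 35 cycles (98° C. 10 s, 65° C. 30 s, 68° C. ~1 min/kbp). Taq control: 2.5 U, 94° C. denaturation. Yield judged by ethidium-stained agarose gel.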

[2] = tested on: 482 bp of human β-globin; assay: PCR amplification of 482 bp of human β-globin with dUTP in place of dTTP; format: biochemical; set-up: key to Results of PCR in the presence of dUTP 481 bp: A: Amplified; B: Amplified (faint band); C: Not amplified; conditions: dTTP replaced by dUTP, 35 cycles
Procedure, shortened: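 482 bp human β-globin amplified from 10 ng human genomic DNA with 1 U enzyme premixed with KOD antibody, using 0.2 mM dNTPs with either dTTP or dUTP, 1.5 mM MgSO4, 15 pmol primers. Cycling: 94 °C 2 min, then 35 cycles of 98 °C 10 s, 68 °C 1 min; products analysed by MultiNA DNA-1000 microchip electrophoresis.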

Row | Molecule | Results of PCR in the presence of dUTP 1.3 kbp [1] | Results of PCR in the presence of dUTP 2.8 kbp [1] | Results of PCR in the presence of dUTP 3.6 kbp [1] | Results of PCR in the presence of dUTP 481 bp [2]
1 | KOD P36R: modified KOD DNA polymerase with P36R (protein, listed as Thermococcus kodakaraensis) MILDTDYITEDGKPVIRIFKKENGEFKIEYDRTFERYFYALLKDDSAIEEVKKITAERHGTVVTVKRVEKVQKKFLGRPVEVWKLYFTHPQDVPAIRDKIREHPAVIDIYEYDIPFAKRYLIDKGLVPMEGDEELKMLAFDIETLYHEGEEFAEGPILMISYADEEGARVITWKNVDLPYVDVVSTEREMIKRFLRVVKEKDPDVLITYNGDNFDFAYLKKRCEKLGINFALGRDGSEPKIQRMGDRFAVEVKGRIHFDLYPVIRRTINLPTYTLEAVYEAVFGQPKEKVYAEEITTAWETGENLERVARYSMEDAKVTYELGKEFLPMEAQLSRLIGQSLWDVSRSSTGNLVEWFLLRKAYERNELAPNKPDEKELARRRQSYEGGYVKEPERGLWENIVYLDFRSLYPSIIITHNVSPDTLNREGCKEYDVAPQVGHRFCKDFPGFIPSLLGDLLEERQKIKKKMKATIDPIERKLLDYRQRAIKILANSYYGYYGYARARWYCKECAESVTAWGREYITMTIKEIEEKYGFKVIYSDTDGFFATIPGADAETVKKKAMEFLKYINAKLPGALELEYEGFYKRGFFVTKKKYAVIDEEGKITTRGLEIVRRDWSEIAKETQARVLEALLKDGDVEKAVRIVKEVTEKLSKYEVPPEKLVIHEQITRDLKDYKATGPHVAVAKRLAARGVKIRPGTVISYIVLKGSGRIGDRAIPFDEFDPTKHKYDAEYYIENQVLPAVERILRAFGYRKEDLRYQKTRQVGLSAWLKPKGT | B | B | B | A
2 | KOD V93Q: modified KOD DNA polymerase with V93Q (protein, listed as Thermococcus kodakaraensis) MILDTDYITEDGKPVIRIFKKENGEFKIEYDRTFEPYFYALLKDDSAIEEVKKITAERHGTVVTVKRVEKVQKKFLGRPVEVWKLYFTHPQDQPAIRDKIREHPAVIDIYEYDIPFAKRYLIDKGLVPMEGDEELKMLAFDIETLYHEGEEFAEGPILMISYADEEGARVITWKNVDLPYVDVVSTEREMIKRFLRVVKEKDPDVLITYNGDNFDFAYLKKRCEKLGINFALGRDGSEPKIQRMGDRFAVEVKGRIHFDLYPVIRRTINLPTYTLEAVYEAVFGQPKEKVYAEEITTAWETGENLERVARYSMEDAKVTYELGKEFLPMEAQLSRLIGQSLWDVSRSSTGNLVEWFLLRKAYERNELAPNKPDEKELARRRQSYEGGYVKEPERGLWENIVYLDFRSLYPSIIITHNVSPDTLNREGCKEYDVAPQVGHRFCKDFPGFIPSLLGDLLEERQKIKKKMKATIDPIERKLLDYRQRAIKILANSYYGYYGYARARWYCKECAESVTAWGREYITMTIKEIEEKYGFKVIYSDTDGFFATIPGADAETVKKKAMEFLKYINAKLPGALELEYEGFYKRGFFVTKKKYAVIDEEGKITTRGLEIVRRDWSEIAKETQARVLEALLKDGDVEKAVRIVKEVTEKLSKYEVPPEKLVIHEQITRDLKDYKATGPHVAVAKRLAARGVKIRPGTVISYIVLKGSGRIGDRAIPFDEFDPTKHKYDAEYYIENQVLPAVERILRAFGYRKEDLRYQKTRQVGLSAWLKPKGT | C | C | C | A
3 | KOD V93K: modified KOD DNA polymerase with V93K (protein, listed as Thermococcus kodakaraensis) MILDTDYITEDGKPVIRIFKKENGEFKIEYDRTFEPYFYALLKDDSAIEEVKKITAERHGTVVTVKRVEKVQKKFLGRPVEVWKLYFTHPQDKPAIRDKIREHPAVIDIYEYDIPFAKRYLIDKGLVPMEGDEELKMLAFDIETLYHEGEEFAEGPILMISYADEEGARVITWKNVDLPYVDVVSTEREMIKRFLRVVKEKDPDVLITYNGDNFDFAYLKKRCEKLGINFALGRDGSEPKIQRMGDRFAVEVKGRIHFDLYPVIRRTINLPTYTLEAVYEAVFGQPKEKVYAEEITTAWETGENLERVARYSMEDAKVTYELGKEFLPMEAQLSRLIGQSLWDVSRSSTGNLVEWFLLRKAYERNELAPNKPDEKELARRRQSYEGGYVKEPERGLWENIVYLDFRSLYPSIIITHNVSPDTLNREGCKEYDVAPQVGHRFCKDFPGFIPSLLGDLLEERQKIKKKMKATIDPIERKLLDYRQRAIKILANSYYGYYGYARARWYCKECAESVTAWGREYITMTIKEIEEKYGFKVIYSDTDGFFATIPGADAETVKKKAMEFLKYINAKLPGALELEYEGFYKRGFFVTKKKYAVIDEEGKITTRGLEIVRRDWSEIAKETQARVLEALLKDGDVEKAVRIVKEVTEKLSKYEVPPEKLVIHEQITRDLKDYKATGPHVAVAKRLAARGVKIRPGTVISYIVLKGSGRIGDRAIPFDEFDPTKHKYDAEYYIENQVLPAVERILRAFGYRKEDLRYQKTRQVGLSAWLKPKGT | B | B | B | A
4 | KOD V93R: modified KOD DNA polymerase with V93R (protein, listed as Thermococcus kodakaraensis) MILDTDYITEDGKPVIRIFKKENGEFKIEYDRTFEPYFYALLKDDSAIEEVKKITAERHGTVVTVKRVEKVQKKFLGRPVEVWKLYFTHPQDRPAIRDKIREHPAVIDIYEYDIPFAKRYLIDKGLVPMEGDEELKMLAFDIETLYHEGEEFAEGPILMISYADEEGARVITWKNVDLPYVDVVSTEREMIKRFLRVVKEKDPDVLITYNGDNFDFAYLKKRCEKLGINFALGRDGSEPKIQRMGDRFAVEVKGRIHFDLYPVIRRTINLPTYTLEAVYEAVFGQPKEKVYAEEITTAWETGENLERVARYSMEDAKVTYELGKEFLPMEAQLSRLIGQSLWDVSRSSTGNLVEWFLLRKAYERNELAPNKPDEKELARRRQSYEGGYVKEPERGLWENIVYLDFRSLYPSIIITHNVSPDTLNREGCKEYDVAPQVGHRFCKDFPGFIPSLLGDLLEERQKIKKKMKATIDPIERKLLDYRQRAIKILANSYYGYYGYARARWYCKECAESVTAWGREYITMTIKEIEEKYGFKVIYSDTDGFFATIPGADAETVKKKAMEFLKYINAKLPGALELEYEGFYKRGFFVTKKKYAVIDEEGKITTRGLEIVRRDWSEIAKETQARVLEALLKDGDVEKAVRIVKEVTEKLSKYEVPPEKLVIHEQITRDLKDYKATGPHVAVAKRLAARGVKIRPGTVISYIVLKGSGRIGDRAIPFDEFDPTKHKYDAEYYIENQVLPAVERILRAFGYRKEDLRYQKTRQVGLSAWLKPKGT | B | B | B | A
5 | KOD P36H/V93K: modified KOD DNA polymerase with P36H and V93K (protein, listed as Thermococcus kodakaraensis) MILDTDYITEDGKPVIRIFKKENGEFKIEYDRTFEHYFYALLKDDSAIEEVKKITAERHGTVVTVKRVEKVQKKFLGRPVEVWKLYFTHPQDKPAIRDKIREHPAVIDIYEYDIPFAKRYLIDKGLVPMEGDEELKMLAFDIETLYHEGEEFAEGPILMISYADEEGARVITWKNVDLPYVDVVSTEREMIKRFLRVVKEKDPDVLITYNGDNFDFAYLKKRCEKLGINFALGRDGSEPKIQRMGDRFAVEVKGRIHFDLYPVIRRTINLPTYTLEAVYEAVFGQPKEKVYAEEITTAWETGENLERVARYSMEDAKVTYELGKEFLPMEAQLSRLIGQSLWDVSRSSTGNLVEWFLLRKAYERNELAPNKPDEKELARRRQSYEGGYVKEPERGLWENIVYLDFRSLYPSIIITHNVSPDTLNREGCKEYDVAPQVGHRFCKDFPGFIPSLLGDLLEERQKIKKKMKATIDPIERKLLDYRQRAIKILANSYYGYYGYARARWYCKECAESVTAWGREYITMTIKEIEEKYGFKVIYSDTDGFFATIPGADAETVKKKAMEFLKYINAKLPGALELEYEGFYKRGFFVTKKKYAVIDEEGKITTRGLEIVRRDWSEIAKETQARVLEALLKDGDVEKAVRIVKEVTEKLSKYEVPPEKLVIHEQITRDLKDYKATGPHVAVAKRLAARGVKIRPGTVISYIVLKGSGRIGDRAIPFDEFDPTKHKYDAEYYIENQVLPAVERILRAFGYRKEDLRYQKTRQVGLSAWLKPKGT | A | A | C | A
